Measurements: patent US8003342
One block for each binder: values may come before it.

Key:
[1] = biological target: T1, rat brain farnesyl:protein transferase (rat, UniProt Q04631 2-377; Q02293 1-437); assay: cell-based or functional assay
[2] = biological target: T1, rat brain farnesyl:protein transferase; assay: cell-based or functional assay; remark: listed apart in the source

Concentration for 50% Inhibition [1]: 100 µM
B1: CIKS (peptide)
peptide: CIKS

fold decrease of affinity against CVIM, from the concentration required for 50% inhibition [2]: 30 fold
B2: CVAM (peptide)
peptide: CVAM
